Data on 32 molecules can be found in patent US20190202896A1 (NOVOBIND LIVESTOCK THERAPEUTICS, published 2019).

Substitutions are numbered along the chain they refer to.

The chains are these.
T1: PrgI-SipD
T1 construct: also called PrgI-SipD fusion
T1 chain: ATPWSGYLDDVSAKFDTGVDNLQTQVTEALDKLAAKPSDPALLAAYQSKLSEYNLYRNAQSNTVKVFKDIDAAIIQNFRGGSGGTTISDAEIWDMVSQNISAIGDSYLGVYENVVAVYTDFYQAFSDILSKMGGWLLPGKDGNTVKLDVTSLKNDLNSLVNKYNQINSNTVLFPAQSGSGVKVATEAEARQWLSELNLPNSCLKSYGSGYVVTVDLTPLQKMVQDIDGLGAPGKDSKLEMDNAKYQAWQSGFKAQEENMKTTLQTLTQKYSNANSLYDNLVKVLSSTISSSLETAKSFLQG

T2: PrgI (Salmonella Type III secretion needle protein), recombinant (Salmonella typhimurium (strain LT2) as …, UniProt P41784 1-80)
T2 sequence: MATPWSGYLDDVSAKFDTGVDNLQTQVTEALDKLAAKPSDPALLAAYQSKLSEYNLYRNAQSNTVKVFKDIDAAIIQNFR

B1: NBX0228 (VHH)
VHH: QVQLQESGGGLVQAGGSLRLSCAASGIDSSFYVMAWYRQAPGQQRELVASISMTSADSPRYADFVKGRFTISRDNAKSTVYLQMNSLKPEDTAVYYCYGLYRQVHWGQGTQVTVSS
notes: also called Clone 125
B2: NBX0229 (VHH)
VHH: QVQLQESGGGLVQAGGSLRLSCAASGSGILFRISAMGWYRQAPGKERDLVAGISSGGSTNYADSVKGRFTISRDNAKNTVYLQMNSLKPEDTAVYYCNIVGRTDSWGQGTQVTVSS
notes: also called Clone 126
B3: NBX0224 (VHH)
VHH: QVQLQQSGGGLVQAGGSLRLSCAASGLTFSSYAMGWFRQAPGKEREFIVAIGWSGGSTYYADSVKGRFTISRDNAKNTVYLHMNSLKPEDTAVYYCAARRTTAWGKGTDYWGQGTQVTVSS
notes: also called Clone 121
B4: NBX0218 (VHH)
VHH: QVQLQESGGGLVQAGGSLSLSCTASGSAFSGDAMGWYRRAPGKQREFVAGISSGAITNYMDSVKGRFTISRDNAKNTVYLQMTKLKPEDTAVYYCNRIQAVLRGNSGWGQGTQVTVSS
notes: also called Clone 115
B5: NBX0235 (VHH)
VHH: B4 VHH with T23R, A24V, A55G, T57E, Q81R, T83S, K84S, R97L, Q99K
notes: also called Clone 132
B6: NBX0231 (VHH)
VHH: B4 VHH with S19T, A24T, K43Q, Q44E, A55G, D61N, S62F, K84S, R97S, Q99K
notes: also called Clone 128
B7: NBX0233 (VHH)
VHH: B4 VHH with E46D, A55H, R97S, Q99T
notes: also called Clone 130
B8: NBX0220 (VHH)
VHH: QVQLQESGGGLVQAGGSLTLSCTASGSAFSGDAMGWYRRAPGKEREFVAGISSGGIPNYMGSVQGRFTISRDNAKNTVYLQMRRLKPEDTAVYYCNSISAVLRGNGVWGQGTQVTVSS
notes: also called Clone 117
B9: NBX0219 (VHH)
VHH: QVQLQESGGGLVQPGGSLSLSCTASGSAFSGGDAMGWYRRAPGKQREFVAGISSGGIANYMDSVKGRFTISRDNAKKAVYLQMTSLKPEDTALYYCNSITAVLRGNSGWGQGTQVTVSS
notes: also called Clone 116
B10: NBX0230 (VHH)
VHH: QVQLQESGGGSVQAGGSLRLSCAASARTLSNYAMGWFRQAPGKEREFVATISRSGGSIHYADSVKGRFTISRDNAKNTVNLQMNSLKVEDTAVYYCGRARGTGYAYTALNQYDYDYWGQGTQVTVSS
notes: also called Clone 127
B11: NBX0234 (VHH)
VHH: B10 VHH with S11L, A26G, L29F, N31T, G56D, S57N, H59Y, N80S, Y106H
notes: also called Clone 131
B12: NBX0222 (VHH)
VHH: QVQLQESGGGLVQAGGSLRLSCAASGIDSSFYVMAWYRQAPGKQRELVASLGTPDSATYADFVKGRFIISRDNAKSTVYLQMNSLKPEDTAVYYCYGLYRQVYWGQGTQVTVSS
notes: also called Clone 119
B13: NBX0223 (VHH)
VHH: QVQLQESGGGLVQAGGSLRLSCVASGIDSSFYVMAWYRQAPGKQRELVASISSADSPRYEDFVKGRFTISRDNGKNTVYLQMNSLKPEDTAVYYCYGLYRQVHWGQGTQVTVSS
notes: also called Clone 120
B14: NBX0226 (VHH)
VHH: B13 VHH with V23A, D28T, F31L, S50H, S52N, A54G, E60A, K64Q
notes: also called Clone 123
B15: NBX0221 (VHH)
VHH: QVQLQESGGGLVQAGGSLRLSCAASGLTFNNYAMGWFRQAPGKEREFVATISRDGTNTRYADSVKGRFTISRDNAKNTVDLQMNSLKPEDTAVYYCGVGRGTGYAYTAINEYDYSKWGQGTQVTVSS
notes: also called Clone 118
B16: NBX0236 (VHH)
VHH: B15 VHH with D80N, N110R, Y112H, K116S
notes: also called Clone 133
B17: NBX0227 (VHH)
VHH: B15 VHH with S21A, N57S, D80N, S85R, T102S, T107S, K116S
notes: also called Clone 124
B18: NBX0232 (VHH)
VHH: B15 VHH with N30H, R59H, T102S
notes: also called Clone 129
B19: NBX0216 (VHH)
VHH: QVQLQESGGGLVQAGGSLRLSCAASTSILSIDAMGWNRQAPGNQRRDLVAVIARGGSTQYADSVKGRFTITRDISKNTIYLQMNSLKPEYTGVYYCAADPGGASGLSWGQGTQVTVSL
notes: also called Clone 113
B20: NBX0105 (VHH)
VHH: QVQLVESGGGLVQAGGSLRLSCAASGRTFNTYYMGWFRQAPGKEREFVSAIRWSDGGTWYADSMKGRFTISRDNAKNTGYLQMNSLKPEDTAIYYCNANVYDGNRWRTYWGQGTQVTVSS
notes: also called Clone 94
B21: NBX0209 (VHH)
VHH: QVQLQESGGGLVQAGGSLRLSCAASGFTFSSSIMAWYRQAPGKQREAIASIPSFGSAVYADSVKDRFTISRDNNKNMVYLQMNSLKPEDTAVYYCNTRLYWGQGTQVTVSS
notes: also called Clone 106
B22: NBX0215 (VHH)
VHH: B21 VHH with S32A, N83D, S111T
notes: also called Clone 112
B23: NBX0211 (VHH)
VHH: B21 VHH with S31T, S32N, M34L, P52T, S53P, D61N, Y94S, R98Q, S111T
notes: also called Clone 108
B24: NBX0210 (VHH)
VHH: QVQLQESGGGLVQAGGSLRLACTASGDISSISVMGWNRQAPGKQQRELVAAIASGGSVKYADSVKGRFTISRDNTKNTVYLQMNSVNAEDTAVYYCAVDTGSPRLTWGQGTQVTVSS
notes: also called Clone 107
B25: NBX0104 (VHH)
VHH: QVQLVESGGGLVQPGGSLRLSCAASGVAFNSRIMGWYRQAPGKQRELVALITSGGSTNYADSVKGRFTISRNNAKKTVYLQMNSLKPEDTAVYYCNIRNYWGQGTQVTVSS
notes: also called Clone 93
B26: NBX0214 (VHH)
VHH: QVQLQESGGGLVQAGGSLRLSCAASGSISSITAMGWNRQAPGNQQRDLVAVIARGGMTKYADSVQGRFTISRDIAKNTVYLQMNSLKPEDTGVYYCALDNGDPRLHWGQGIQVTVSS
notes: also called Clone 111
B27: NBX0217 (VHH)
VHH: B26 VHH with K76N, D99Y
notes: also called Clone 114
B28: NBX0213 (VHH)
VHH: QVQLQESGGGSVQAGGSLRLSCAASGSISSITAMGWNRQAPGNQRELVAVIARGGMIKYDDSVKGRFTISRDIAKNTVFLQMDSLKPEDTGVYYCAVDNGDPRLHWGQGIQVTVSS
notes: also called Clone 110
B29: NBX0212 (VHH)
VHH: QVQLQESGGGLVQAGGSLRLSCAASTSILSINAMGWNREAPGNRREMVAIIAPGGTTNYADSVKGRFTITRDISKNTIYLQMNNLKPEDTGVYYCAADPGGQSPLSWGQGTQVTVSL
notes: also called Clone 109
B30: NBX0207 (VHH)
VHH: QVQLQESGGGLVQAGKSLRLSCAASTAILSIDSMGWNRQAVGNQRELVAVIARGGSTKYADSVKGRFTITRDISKNTIYLQMNSLKPEDTGVYYCAADPGGASPLSWGQGTQVTVSL
notes: also called Clone 104
B31: NBX0108 (VHH)
VHH: QVKLEESGGGLVRAGGSLTLSCGASRGTFRTYSMGWFRQAPGKEREFVAAITWNGKYTYYGDSVQGRFTISKDNAKNTVSLQMNRLNPEDTAVYYCAANPIPTAQPPGIMAARSYVHWGQGTQVTVSS
notes: also called Clone 95
B32: NBX0208 (VHH)
VHH: QVQLQESGGGMVQAGGSLRLACTASGDISTIDVMGWNRQAPGKHRELVAIIARGGTIKYADSVKGRFTISRDNTKNTVTVYLQMNNVNAEDTAVYYCAVDTGSPRLTWGQGTQVTVSS
notes: also called Clone 105

The target in the first test is T1, PrgI-SipD. Kind of test: phage ELISA, antigen-coated wells, anti-M13-HRP, A405.
For the molecule B1, the “binding over background (PBS-only wells)” value is at least 4 fold. On the same count and under the same terms, the figure for B2 is at least 4 fold; for B3 it is at least 4 fold. The same measure, in the same setting: the figure for B4 is at least 4 fold.

For the molecule B5, the “binding over background (PBS-only wells)” value was at least 4 fold.

Regarding B6, the “binding over background (PBS-only wells)” value is at least 4 fold. On to B7, for which the “binding over background (PBS-only wells)” value is at least 4 fold. Still for that read-out and setting: the figure for B8 is at least 4 fold. Consider B9, for which the “binding over background (PBS-only wells)” value was at least 4 fold. Regarding B10, the “binding over background (PBS-only wells)” value was at least 4 fold. On the same count and under the same terms, the value for B11 was at least 4 fold; that for B12 was at least 4 fold. In the case of B13, the “binding over background (PBS-only wells)” value is at least 4 fold. With B14, the “binding over background (PBS-only wells)” value is at least 4 fold. On the same count and under the same terms, the value for B15 was at least 4 fold; that for B16 was at least 4 fold. On the same count and under the same terms, the figure for B17 is at least 4 fold. On the same count and under the same terms, the figure for B18 is at least 4 fold.

For the next test, the target named is T2, PrgI (Salmonella Type III secretion …). The description is as above.
As for B19, the “binding over background (PBS-only wells)” value was at least 4 fold. Same read-out and setting: the figure for B20 is at least 4 fold; for B21 it is at least 4 fold; for B22 it is at least 4 fold. For B23, the “binding over background (PBS-only wells)” value was at least 4 fold.

With B24, the “binding over background (PBS-only wells)” value was at least 4 fold.

With B25, the “binding over background (PBS-only wells)” value was at least 4 fold. The same measure, in the same setting: the figure for B26 is at least 4 fold; for B27 it is at least 4 fold.

With B28, the “binding over background (PBS-only wells)” value is at least 4 fold. On the same count and under the same terms, the figure for B29 is at least 4 fold; for B30 it is at least 4 fold. With B31, the “binding over background (PBS-only wells)” value is at least 4 fold. Same read-out and setting: the value for B32 was at least 4 fold.
